Two molecules from PMC3020710 (The Journal of Biological Chemistry, 2010) can be followed below.

In experiment [1] the target is T1, GST-Sall1 (full length) (mouse, UniProt Q9ER74 1-1322).
T1 sequence (looked up): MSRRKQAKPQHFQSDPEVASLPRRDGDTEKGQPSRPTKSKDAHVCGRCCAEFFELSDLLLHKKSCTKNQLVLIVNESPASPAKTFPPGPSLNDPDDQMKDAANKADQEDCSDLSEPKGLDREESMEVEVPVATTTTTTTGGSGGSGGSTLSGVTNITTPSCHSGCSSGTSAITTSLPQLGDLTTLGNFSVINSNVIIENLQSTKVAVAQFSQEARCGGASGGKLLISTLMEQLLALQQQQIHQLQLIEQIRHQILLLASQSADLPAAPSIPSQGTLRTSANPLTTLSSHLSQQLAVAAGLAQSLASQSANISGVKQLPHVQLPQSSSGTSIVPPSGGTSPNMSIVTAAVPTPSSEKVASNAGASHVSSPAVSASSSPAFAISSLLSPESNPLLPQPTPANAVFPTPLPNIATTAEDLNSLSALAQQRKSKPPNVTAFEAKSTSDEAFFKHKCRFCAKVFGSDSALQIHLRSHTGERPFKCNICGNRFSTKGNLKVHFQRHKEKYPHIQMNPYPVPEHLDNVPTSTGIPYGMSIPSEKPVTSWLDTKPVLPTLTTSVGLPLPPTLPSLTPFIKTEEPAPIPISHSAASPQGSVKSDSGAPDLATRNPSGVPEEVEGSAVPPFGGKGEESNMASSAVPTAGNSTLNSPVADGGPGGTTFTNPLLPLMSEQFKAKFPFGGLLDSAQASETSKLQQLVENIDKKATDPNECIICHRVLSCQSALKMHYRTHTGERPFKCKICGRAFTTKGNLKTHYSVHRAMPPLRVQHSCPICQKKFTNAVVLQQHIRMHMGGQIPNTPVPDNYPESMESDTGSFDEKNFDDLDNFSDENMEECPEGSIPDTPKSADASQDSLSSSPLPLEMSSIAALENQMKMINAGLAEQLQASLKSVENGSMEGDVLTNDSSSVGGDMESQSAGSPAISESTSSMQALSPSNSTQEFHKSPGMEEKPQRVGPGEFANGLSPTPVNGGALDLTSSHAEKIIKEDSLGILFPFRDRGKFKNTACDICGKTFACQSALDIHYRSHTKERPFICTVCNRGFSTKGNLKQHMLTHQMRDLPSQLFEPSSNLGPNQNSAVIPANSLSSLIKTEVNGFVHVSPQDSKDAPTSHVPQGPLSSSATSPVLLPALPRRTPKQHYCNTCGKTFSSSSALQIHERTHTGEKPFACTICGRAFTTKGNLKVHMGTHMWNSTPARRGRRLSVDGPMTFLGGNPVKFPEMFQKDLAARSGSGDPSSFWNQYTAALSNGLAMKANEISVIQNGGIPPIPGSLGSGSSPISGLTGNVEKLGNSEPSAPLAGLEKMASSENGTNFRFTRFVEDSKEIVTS
Briefly: pull-down.

The target in experiment [2] is T1, GST-Sall1 (full length). Briefly: pull-down. The source holds these as a separate data set.

Like-named read-outs stand apart in the source and are kept apart here.

B1: His-Sox2 aa 1-240 (domain or fragment)
chain: not shown
For the molecule B1, the binding result in the experiment with GST-Sall1 (full length) [1] is recorded as “binds”.

B2: His-Sox2 (full length) (natural protein)
chain: not shown
Turning to B2, the binding result with GST-Sall1 (full length) [2] and in the experiment with GST-Sall1 (full length) [1] was “binds” in each case.
